Reference: US20180194841A1
pEC50, pKd: −log10 of the molar value.

Columns and labels:
[1] = molecular target: His-tagged cynomolgus FcγRIIB (cynomolgus); test: SPR steady-state, 25 C, His-tagged FcγR captured, antibody injected
[2] = molecular target: His-tagged human FcγRIIA (R131) (human) (UniProt P12318); test: as above
[3] = molecular target: His-tagged human FcγRIIIA (V176) (human) (UniProt P08637); test: as above
[4] = molecular target: His-tagged human FcγRIIA (H131) (human) (UniProt P12318); test: as above
Chain of His-tagged human FcγRIIA (H131) (human) (P12318 36-218 limits assumed): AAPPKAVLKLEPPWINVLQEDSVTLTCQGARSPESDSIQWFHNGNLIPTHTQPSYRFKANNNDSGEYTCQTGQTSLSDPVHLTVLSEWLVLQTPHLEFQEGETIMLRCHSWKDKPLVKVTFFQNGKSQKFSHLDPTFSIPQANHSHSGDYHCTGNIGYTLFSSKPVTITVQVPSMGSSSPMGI

[5] = molecular target: His-tagged human FcγRIIB (human) (UniProt P31994); test: as above
Chain of His-tagged human FcγRIIB (human) (P31994 46-217 limits assumed): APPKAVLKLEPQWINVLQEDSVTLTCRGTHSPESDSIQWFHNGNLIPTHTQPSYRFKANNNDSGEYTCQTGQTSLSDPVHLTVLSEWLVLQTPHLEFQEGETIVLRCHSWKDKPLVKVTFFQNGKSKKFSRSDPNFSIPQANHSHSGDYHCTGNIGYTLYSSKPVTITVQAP

[6] = molecular target: His-tagged cynomolgus FcγRIIIA (cynomolgus) (UniProt Q8SPW2); test: as above
Chain of His-tagged cynomolgus FcγRIIIA (cynomolgus) (Q8SPW2 17-208 limits assumed): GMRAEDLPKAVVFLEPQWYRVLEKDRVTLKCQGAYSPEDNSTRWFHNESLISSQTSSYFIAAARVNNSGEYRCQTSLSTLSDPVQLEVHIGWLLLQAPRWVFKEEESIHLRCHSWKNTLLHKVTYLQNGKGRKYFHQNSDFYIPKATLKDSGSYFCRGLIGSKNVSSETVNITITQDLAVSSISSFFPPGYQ

[7] = molecular target: His-tagged cynomolgus FcγRIIA (cynomolgus); test: as above
[8] = molecular target: His-tagged human FcγRIIIA (F176) (human) (UniProt P08637); test: as above
Chain of His-tagged human FcγRIIIA (F176) (human) (P08637 17-208 limits assumed): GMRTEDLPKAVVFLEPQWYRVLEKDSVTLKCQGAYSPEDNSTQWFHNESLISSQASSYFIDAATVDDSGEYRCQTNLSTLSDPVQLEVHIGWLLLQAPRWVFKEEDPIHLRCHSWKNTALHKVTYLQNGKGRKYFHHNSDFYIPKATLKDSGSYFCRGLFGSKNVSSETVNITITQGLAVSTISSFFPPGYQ

[9] = molecular target: His-tagged human FcγRI (human) (UniProt P12314); test: SPR (Biacore T200), 25 C, His-tagged FcγRI captured on anti-penta-His chip, antibody injected, 1:1 fit
Chain of His-tagged human FcγRI (human) (P12314 16-288 limits assumed): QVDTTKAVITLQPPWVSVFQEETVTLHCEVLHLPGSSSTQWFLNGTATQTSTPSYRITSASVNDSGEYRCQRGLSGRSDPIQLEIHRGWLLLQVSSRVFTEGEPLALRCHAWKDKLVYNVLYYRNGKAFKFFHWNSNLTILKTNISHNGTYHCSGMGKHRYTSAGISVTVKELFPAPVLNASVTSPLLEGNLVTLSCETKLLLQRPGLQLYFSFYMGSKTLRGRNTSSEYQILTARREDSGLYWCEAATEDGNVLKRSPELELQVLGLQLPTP

[10] = molecular target: His-tagged human FcγRIIIB (human) (UniProt O75015); test: SPR steady-state, 25 C, His-tagged FcγR captured, antibody injected
Chain of His-tagged human FcγRIIIB (human) (O75015 17-200 limits assumed): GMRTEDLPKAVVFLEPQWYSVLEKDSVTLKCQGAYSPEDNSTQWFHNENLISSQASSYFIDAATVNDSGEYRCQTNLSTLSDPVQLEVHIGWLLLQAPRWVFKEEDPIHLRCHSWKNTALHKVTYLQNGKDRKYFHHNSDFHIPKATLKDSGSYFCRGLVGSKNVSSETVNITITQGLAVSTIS

[11] = molecular target: cynomolgus CD3 (on cynomolgus T cells from PBMCs, "mkT cells") (cynomolgus) (UniProt Q95LI5); test: FACS, serially diluted antibody on cynomolgus T cells (CD2+CD4+ gate of PBMCs)
Chain of cynomolgus CD3 (on cynomolgus T cells from PBMCs, "mkT cells") (cynomolgus) (Q95LI5 22-198, chain 1 of 3): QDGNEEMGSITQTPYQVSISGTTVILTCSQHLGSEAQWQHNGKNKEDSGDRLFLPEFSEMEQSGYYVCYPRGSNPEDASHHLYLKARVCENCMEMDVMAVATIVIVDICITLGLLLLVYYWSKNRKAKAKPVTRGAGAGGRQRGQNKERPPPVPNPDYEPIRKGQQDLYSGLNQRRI
Chain of cynomolgus CD3 (on cynomolgus T cells from PBMCs, "mkT cells") (cynomolgus) (Q95LI8 22-171, chain 2 of 3, further chain): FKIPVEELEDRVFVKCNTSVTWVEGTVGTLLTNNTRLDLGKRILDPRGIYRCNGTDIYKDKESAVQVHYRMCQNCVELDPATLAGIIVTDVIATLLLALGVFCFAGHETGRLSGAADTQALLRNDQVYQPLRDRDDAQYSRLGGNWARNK
Chain of cynomolgus CD3 (on cynomolgus T cells from PBMCs, "mkT cells") (cynomolgus) (Q95LI7 23-181, chain 3 of 3, further chain): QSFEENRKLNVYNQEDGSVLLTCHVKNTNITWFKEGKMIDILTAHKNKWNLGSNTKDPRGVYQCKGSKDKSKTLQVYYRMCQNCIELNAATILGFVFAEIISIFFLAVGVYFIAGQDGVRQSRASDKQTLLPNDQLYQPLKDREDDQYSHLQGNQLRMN

[12] = molecular target: Fc receptors (FcR) on U937 cells; test: cell-based or functional assay
[13] = molecular target: human CD3 (on Jurkat cells, CD3+, CD20- human T-cell line; on human T cells) (human) (UniProt P07766); test: FACS, serially diluted antibody on Jurkat cells (CD3+, CD20-)

Chain of His-tagged human FcγRIIIA (V176) (human) (P08637 17-208 F176V limits assumed): as the sequence (P08637 17-208 limits assumed) above, with F160V counted along it
Chain of His-tagged human FcγRIIA (R131) (human) (P12318 36-218 H167R limits assumed): as the sequence (P12318 36-218 limits assumed) above, with H132R counted along it

pKd [1]	pKd [2]	pKd [3]	pKd [4]	pKd [5]	pKd [6]	pKd [7]	pKd [8]	pKd [9]	T1/2 [9] [min]	koff [9] [s⁻¹]	kon [9] [M⁻¹ s⁻¹]	pKd [10]	pEC50 [11]	pEC50 [13]	Substance	U937 Cytotoxicity Human T-cells [M] (EC50, calcein release) [12]
5.02	5.00	5.00	4.92	5.01	5.24	4.71	4.59	7.86	5	0.00236	171000	–	–	–	wt-IgG4 CPPC Isotype Control (antibody)	–
5.38	–	5.82	5.96	–	6.22	5.38	5.89	8.37	15	–	–	5.64	–	–	wt-IgG1 Isotype Control (from UniProt P01857 1-328) (antibody)	–
–	–	–	–	–	–	–	–	–	–	–	–	–	10.15	–	Control Antibody 2: Antibody "SP34" reactive against the epsilon chain of the T3 complex on human T lymphocyte cells	–
–	–	–	–	–	–	–	–	–	–	–	–	–	–	9.71	Control Antibody 1: Monoclonal antibody "OKT-3" against human T-cell surface antigens	3.04e-12
